For assay [1], the target named is … (SEQ ID NO: 1) HLA-A*24 complex, oxidised form of the peptide (human). Put plainly: SPR, soluble TCR over immobilised biotinylated pHLA, equilibrium, 25 C. On the technique in general: SPR reads the build-up and loss of mass on a sensor chip optically.
The target of assay [2] is … (SEQ ID NO: 1) HLA-A*24 complex, reduced form of the peptide (human). The description is as above.
Assay [3] has as its target T1, PRAME peptide on HLA-A*24:02 (human, not fully specified (residue 6)).
T1 peptide: PYLGQMINL
The assay is described as follows: SPR, equilibrium, 25 C; oxidised peptide; soluble, with an engineered disulfide between the constant domains.

Assay [4] has as its target T2, PRAME peptide on HLA-A*24:02 (human).
T2 peptide: PYLGQMINL
Put plainly: SPR, equilibrium, 25 C; reduced peptide; soluble, with an engineered disulfide between the constant domains.

Where no end group is shown, it is not given here.

B1: S10 (TCR)
alpha TRAV27 CDR3: GAIWSTLGRLY
beta TRBV5-6 CDR3: SSFKGVNQPQH
As a reminder, the Kd is the constant that tells how readily two partners part at equilibrium. As for B1, the Kd is 193 µM in assay [1], 53 µM in assay [2], 193 µM in assay [3] and 53 µM in assay [4].

B2: S4 (TCR)
alpha TRAV12-2 CDR3: AVNGPNNAGNMLT
beta TRBV6-2/3 CDR3: ASSPGGFGQPQH
On to B2, for which the Kd in assay [2] and in assay [4] was 18.9 µM throughout.

B3: S6 (TCR)
alpha TRAV21 CDR3: AVPNPSARQLT
beta TRBV7-9 CDR3: ASSLEGQGVEQF
As for B3, the equilibrium dissociation constant (Kd) in assay [1] turned out to be 241 µM; in assay [2] it was 126 µM; in assay [3], 241 µM; in assay [4], 126 µM.

B4: S5 (TCR)
alpha TRAV12-2 CDR3: AVNKGFQKLV
beta TRBV6-1 CDR3: ASSEGWGGQPQH
Turning to B4, the Kd in assay [2] and in assay [4] was 14.5 µM throughout.

B5: S1 (TCR)
alpha TRAV24 CDR3: AFISWRSSGDKLT
beta TRBV25 CDR3: ASSSPLSGPLASPLH
As for B5, the dissociation constant (Kd) in assay [2] and in assay [4] was 85 µM each time.

These data come from US20250026829A1 (published 2025).
